From PMC6497308

B1: ATP1B2 (Na/K-ATPase β2 subunit): N96Q (protein)
parent chain: MVIQKEKKSCGQVVEEWKEFVWNPRTHQFMGRTGTSWAFILLFYLVFYGFLTAMFTLTMWVMLQTVSDHTPKYQDRLATPGLMIRPKTENLDVIVNVSDTESWDQHVQKLNKFLEPYNDSIQAQKNDVCRPGRYYEQPDNGVLNYPKRACQFNRTQLGNCSGIGDSTHYGYSTGQPCVFIKMNRVINFYAGANQSMNVTCAGKRDEDAENLGNFVMFPANGNIDLMYFPYYGKKFHVNYTQPLVAVKFLNVTPNVEVNVECRINAANIATDDERDKFAGRVAFKLRINKT
B2: ATP1B2 (Na/K-ATPase β2 subunit): N118Q (protein)
parent chain: MVIQKEKKSCGQVVEEWKEFVWNPRTHQFMGRTGTSWAFILLFYLVFYGFLTAMFTLTMWVMLQTVSDHTPKYQDRLATPGLMIRPKTENLDVIVNVSDTESWDQHVQKLNKFLEPYNDSIQAQKNDVCRPGRYYEQPDNGVLNYPKRACQFNRTQLGNCSGIGDSTHYGYSTGQPCVFIKMNRVINFYAGANQSMNVTCAGKRDEDAENLGNFVMFPANGNIDLMYFPYYGKKFHVNYTQPLVAVKFLNVTPNVEVNVECRINAANIATDDERDKFAGRVAFKLRINKT
B3: ATP1B2 (Na/K-ATPase β2 subunit): N159Q (protein)
parent chain: MVIQKEKKSCGQVVEEWKEFVWNPRTHQFMGRTGTSWAFILLFYLVFYGFLTAMFTLTMWVMLQTVSDHTPKYQDRLATPGLMIRPKTENLDVIVNVSDTESWDQHVQKLNKFLEPYNDSIQAQKNDVCRPGRYYEQPDNGVLNYPKRACQFNRTQLGNCSGIGDSTHYGYSTGQPCVFIKMNRVINFYAGANQSMNVTCAGKRDEDAENLGNFVMFPANGNIDLMYFPYYGKKFHVNYTQPLVAVKFLNVTPNVEVNVECRINAANIATDDERDKFAGRVAFKLRINKT
B4: ATP1B2 (Na/K-ATPase β2 subunit): N238Q (protein)
parent chain: MVIQKEKKSCGQVVEEWKEFVWNPRTHQFMGRTGTSWAFILLFYLVFYGFLTAMFTLTMWVMLQTVSDHTPKYQDRLATPGLMIRPKTENLDVIVNVSDTESWDQHVQKLNKFLEPYNDSIQAQKNDVCRPGRYYEQPDNGVLNYPKRACQFNRTQLGNCSGIGDSTHYGYSTGQPCVFIKMNRVINFYAGANQSMNVTCAGKRDEDAENLGNFVMFPANGNIDLMYFPYYGKKFHVNYTQPLVAVKFLNVTPNVEVNVECRINAANIATDDERDKFAGRVAFKLRINKT
B5: ATP1B2 (Na/K-ATPase β2 subunit): N197Q (protein)
parent chain: MVIQKEKKSCGQVVEEWKEFVWNPRTHQFMGRTGTSWAFILLFYLVFYGFLTAMFTLTMWVMLQTVSDHTPKYQDRLATPGLMIRPKTENLDVIVNVSDTESWDQHVQKLNKFLEPYNDSIQAQKNDVCRPGRYYEQPDNGVLNYPKRACQFNRTQLGNCSGIGDSTHYGYSTGQPCVFIKMNRVINFYAGANQSMNVTCAGKRDEDAENLGNFVMFPANGNIDLMYFPYYGKKFHVNYTQPLVAVKFLNVTPNVEVNVECRINAANIATDDERDKFAGRVAFKLRINKT
B6: ATP1B2 (Na/K-ATPase β2 subunit): N153Q (protein)
parent chain: MVIQKEKKSCGQVVEEWKEFVWNPRTHQFMGRTGTSWAFILLFYLVFYGFLTAMFTLTMWVMLQTVSDHTPKYQDRLATPGLMIRPKTENLDVIVNVSDTESWDQHVQKLNKFLEPYNDSIQAQKNDVCRPGRYYEQPDNGVLNYPKRACQFNRTQLGNCSGIGDSTHYGYSTGQPCVFIKMNRVINFYAGANQSMNVTCAGKRDEDAENLGNFVMFPANGNIDLMYFPYYGKKFHVNYTQPLVAVKFLNVTPNVEVNVECRINAANIATDDERDKFAGRVAFKLRINKT
B7: ATP1B2 (Na/K-ATPase β2 subunit): N250Q (protein)
parent chain: MVIQKEKKSCGQVVEEWKEFVWNPRTHQFMGRTGTSWAFILLFYLVFYGFLTAMFTLTMWVMLQTVSDHTPKYQDRLATPGLMIRPKTENLDVIVNVSDTESWDQHVQKLNKFLEPYNDSIQAQKNDVCRPGRYYEQPDNGVLNYPKRACQFNRTQLGNCSGIGDSTHYGYSTGQPCVFIKMNRVINFYAGANQSMNVTCAGKRDEDAENLGNFVMFPANGNIDLMYFPYYGKKFHVNYTQPLVAVKFLNVTPNVEVNVECRINAANIATDDERDKFAGRVAFKLRINKT
B8: ATP1B2 (Na/K-ATPase β2 subunit): N193Q (protein)
parent chain: MVIQKEKKSCGQVVEEWKEFVWNPRTHQFMGRTGTSWAFILLFYLVFYGFLTAMFTLTMWVMLQTVSDHTPKYQDRLATPGLMIRPKTENLDVIVNVSDTESWDQHVQKLNKFLEPYNDSIQAQKNDVCRPGRYYEQPDNGVLNYPKRACQFNRTQLGNCSGIGDSTHYGYSTGQPCVFIKMNRVINFYAGANQSMNVTCAGKRDEDAENLGNFVMFPANGNIDLMYFPYYGKKFHVNYTQPLVAVKFLNVTPNVEVNVECRINAANIATDDERDKFAGRVAFKLRINKT

Assay: Western blot densitometry of ATP1B2 in HEK293
Settings: glycan lost; control: normal ATP1B2

Protein | expression_or_secretion
B1 | no change
B2 | no change
B3 | no change
B4 | no change
B5 | no change
B6 | no change
B7 | no change
B8 | no change
